B1: unnamed (protein)
chain: MMKDIAITFREGTIAARIYLPPPVHRAGEPHPGIIILHGYLAQQIQFDDLPRRLARKGYVAITFDMPGHGRSSGKRGYIEKDLQIDAATTVLDHLISLPNVDPKRILVIGHSLGGAMGTYLCARDPRPTAFVAIAPAGSLKRIVPLPARMLFGIPYIIHRIKKRMTGNSLYFHSIVTEHIVWADKRKVKFELERELLQHRQPVDNYRTIFLIDPRIPARKVTIPTIMFLASRDRVVPNRISRELFDNIASDDKTLLTIENSGHSIMSDWKKEDFWKMLVPWLETHIPP
B2: unnamed (protein)
chain: CNDGSGGLEKTTELEPEDIYPLGDYYDPGKTGPYEVGVKTILLADNSRRTMLGHTKRILLTEVWYPILAPGDKINTVGDMIGQLPEWTPQILESFYGENWEDLLNIQTSAWRDAKTFLPDHPFPVIFFSHGLTALRFQNYTLCEHLASHGFLVIAPDHFDNNVFSNIPGHFTWFNPISTVASEFQRPRDIAFLVKHLQTRQSQTATFFGSYADPGRLGITGHSYGGMTSYAAGEQVAEIDAIAPLNPVILVPTTKFFTKPLLLLVGENDNLASSMFNSCEVAKRNYQTHKGNKAFLFLKNSGHYSATDACMLLPPGFINDDITGCGGAMLNPDIANEIVAAYQVAFFSITLKQDARYQDYLNKNNYPDNLDYEVSWK
B3: unnamed (protein)
chain: VEPLADPAKPGPYPVGVTTMLLVDHSRTDNALAGGPRSLMTEIWYPATDDTRGLPKNRLLDFFNRNTDPGFTVLLKMAFGIDLIQADKDFRNDAVRDARVRDGRFPLVLFSHGNGGIRMQNAYWCEHMASHGYIVMAPDHTGNCAVTFIDGRIFPFNDSEEGREQSRQDRPKDISFLIDAMERMNKGADSRFMGKVDLDHIGVAGHSFGGFTSTWVADAEPRVDAIVPMAGAGAERVNYTCPVMVLVATEDDTLGPERMADLRRYYDESKGPRYLVEFLNAGHFSFTEMYQLKPDFGDGCGTGTRITNGEPLTYIAMDVAFPLIKGYTTAFFGKYLKGLDGYDAYLAANHNPNELVVKSSIPETPQ
B4: unnamed (protein)
chain: QNSANVQNEISYDVFDYAQHPMGTIWGDPLPDAPALAARGEYMVGVQTLHLSNPNQTDVINTITSKSTVIYDRPLTVEVWYPATLKAGQVQVTVYCDFLGRYDKPGTLVPYTFLGRATRDAVPDTADGPYPLIIISHGYPGSRHLLFYLGENLASKGYVVVSIDHTDSTYKDVGHFASTLVNRSLDQKFVIREILKMPIWKDLCNPNEVGIIGYSMGGYGALRTLGAGLEDSNTIKGFLGEFASMLIAKPSDEGDPLVKAAVLFAPWGGSFGTGPTGLWDKASLAKITVPTLWIAGSQDDIAGYEGIVNLFNSSVNSRRYLLTYDNALHNVAPHPAPSIATEFGDYYRFADPVWDMWRIDSINEHFVTAFFDLYLKGDESAGSYLDMKVENSNEGVYSDQAESSTYWPGFQPRTALGLKFR
B5: unnamed (protein)
chain: MSQYDPFLRGPFPAGVKTYEFEDTSRDRKLPIECWYPATSAYKGKDLDKETQDQFQLMEGFPKARQNAVRDAEIVDDSFPLIIFSHGFAGHRRQTTHFCTHLAGHGYIVASIDHIGSTLPEIMQMVMKVRKEGKLPDIEKFMEDVANDRPVDATFTIDTILAGELGPGIDPDRIGITGHSFGGWTTLVTTKSDTRIKAALPLAPGGGKSPLYGKDNPLTKMLTLDWERTVPTLYLTAEFDTLLPLDGMKDMFDRTPEPKGMVVLLNADHFHFCDGVEVVHDFFRQMGGFVGGMDPGGESEPAPMKKAKPSSELCPGKDAYTFIQGIGLAHMDAHLKGNSDAIELLKGDIAALLADRGVKVEVMQG
B6: unnamed (protein)
chain: VEIHDLHFYNRYNHTVAATIYLPENLNNSPAVIFCGGWLSSREMYSWLPEELAKRGYVVLAIDPSGNGDSYGKLPSFKIFGVRIFSVIDGPYNYINGVWSSDIYDAVTFLTTNYRVSKNVALIGHSMGGFAVTDEALKDGRIKTVIALSDADIYAIKNLKIPVMVITGDFDLIINDNLVAIPGYNAANPPKELIVIKFGTHNGFTNLIWPMPPWNHNVTLYYLSSWLDCFLREDRESCKTLEKPHKYLSTLSESKCNLDGKEKVIKRATGRRKTFTAFLLIFLFLAVLILYLRSKEG
B7: unnamed (protein)
chain: VGTISFDLVDKERLELYGDKIGEERKFKAQMWYPSDDVTEGERAPWIEDGVKVSRMIPKDIGLPGFLIDYSSLIKSNSYKGVPISEKEEKYPIVIISHGWTGYRNIHTDIGELLASHGYIAISIDHTYGSLATVFDNGEVIEVDYGALPNRNETEDFLDYANALVTTYAYDSRFVLDYLEELDDSELIDGRLDLDRIGTLGHSTGGGGVVKIAIEDDRIKAIFGFDPWVEPIEDELLKIGLDVPSLFIRSEQWEEGYNNGYLTTLINHSVIKPMTYQMNGVNHLDFTMLYMYRPILQAFGFAGELDSQVSSKIQLEYVLKFFETYLKDNETNLNDIEKIYDSVIPVNY
B8: unnamed (protein)
chain: MEKPVVFENEGQQIVGMLHAPDGAEGLSPAVVMFHGFTGTKVEPHRLFVKTARRLAEEGFYVLRFDFRGSGDSEGEFREMTLEGEISDAKASLDFILSQPGVDRGRIGVIGLSMGGGVAACLAGRDERVRAVALWAAVSEDPPDLFQELIKTFEERPDKSVDYVDMGGNLVGKGFFEDLRNVKPLQEISGFEGPVLIVHGDNDQTVSVEHAYRFYERLKGKHPLTALHIIRGADHTFNSHEWEREVIEVTVDFMKRA

Substrate: PET
Assay: Proxy for plastic degradation [HPLC-UV] (mmol)
Conditions: pH 8

Protein | Proxy for plastic degradation (30 °C) | Proxy for plastic degradation (60 °C)
B1 | 0 | 0
B2 | 0 | 0
B3 | 0 | 0
B4 | 0 | 0
B5 | 0 | 0
B6 | 0 | 0
B7 | 0 | 0
B8 | 0 | 0

Source: the PETadex activity labels (doi:10.1093/ismejo/wraf068)
